Laboratory results published in patent publication US20260151470A1.

Biological target: native PfCSP on PfCSP-expressing Plasmodium berghei (PbPf) sporozoites (Plasmodium falciparum) (UniProt P19597)
Test: cell-based or functional assay

UniProt P19597, sequence (P19597 19-374 limits assumed): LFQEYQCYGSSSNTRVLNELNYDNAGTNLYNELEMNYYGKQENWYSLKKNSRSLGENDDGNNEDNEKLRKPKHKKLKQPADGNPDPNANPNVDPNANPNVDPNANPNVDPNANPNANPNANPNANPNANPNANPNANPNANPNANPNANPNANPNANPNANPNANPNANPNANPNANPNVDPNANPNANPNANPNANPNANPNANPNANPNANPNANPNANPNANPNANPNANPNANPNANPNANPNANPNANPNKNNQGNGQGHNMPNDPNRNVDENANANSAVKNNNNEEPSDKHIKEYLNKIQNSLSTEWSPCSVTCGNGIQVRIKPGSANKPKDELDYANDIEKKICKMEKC

**Q.** With anti-PfCSP 2A10 monoclonal antibody as the substance, how does the circumsporozoite precipitation reaction (CSPR), mean FSC-W read?
**A.** 1220
